Test results from US20230338589A1.
Each block holds one molecule with its values, some of them ahead of it.

Legend:
[1] = biological target: T1, interferon gamma (IFN-γ), murine, recombinant (mouse) (UniProt P01580); test: Octet (BLI) analysis of binding affinity; format not stated
T1 sequence (looked up): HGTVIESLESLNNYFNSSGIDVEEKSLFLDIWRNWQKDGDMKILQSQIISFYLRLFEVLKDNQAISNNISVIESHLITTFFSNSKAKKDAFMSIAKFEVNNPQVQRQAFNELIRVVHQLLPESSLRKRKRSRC

[2] = biological target: T1, interferon gamma (IFN-γ), murine, recombinant (mouse); test: cell-based or functional assay
[3] = biological target: T1, interferon gamma (IFN-γ), murine, recombinant (mouse); test: radioligand cell assay: TUBO cells preincubated with recombinant IFN-γ (10 ng/mL), washed, then incubated with tracer 1 h at 37 C; acid-wash fraction read by gamma counter; background without IFN-γ 1.13 ± 0.28%

Kd [1]: 37.9 nM
Molecule: anti-IFN-γ diabody (homodimer of the single chain Fv derived from clone AN18, produced in CHO cells)

internalization (% internalized activity) in TUBO cells preincubated with IFN-γ [2]: 3.93%
surface binding (% of activity) [3]: 13.6%
B1: ^89Zr-anti-IFN-γ labeled-antibody conjugate (AN-18 conjugated to p-SCN-Bn-desferrioxamine and labeled with ^89Zr) (antibody, rat IgG1, V domains shown)
VH: QVQLKESGPGLVQPSQTLSLTCTVSGFSLDSYNVHWVRQPPGKGLEWMGRMKYNGDTSYNSALKSRLRISRDTSKNQVFLKMNSLQTDDTGTYYCTRDWHYGYPSPYFEFWGQGVMVTVSS
VL: DVQMTQSPSYLAASPGESVSISCKASKNINTYLAWYQEKPGKTNKLLIYSGSTLQSGTPSRFSGSGSGTDFTLTIRSLEPEDFAVYYCQQHNEYPLTFGSGTKLEVKR
modifications: p-SCN-Bn-Desferrioxamine (DFO) conjugated to the antibody (Ab:DFO 1:5), chelating ^89Zr; sites not stated
